US7723070B2, “Overexpression of aminoacyl-tRNA synthetases for efficient production of engineered proteins containing amino acid analogues” (California Institute of Technology, priority 2000, dated 2010)

System: B834(DE3) or CAG18491 hosts with pQE15/pREP4 or pQE15-MRS/pREP4
Assay: Translational activity: mDHFR synthesis, statements covering several bacterial hosts (with pQE15 or pQE15-MRS)
Assay type: cell-based, E. coli
Settings: each of CAG18491/pQE15/pREP4 and CAG18491/pQE15-MRS/pREP4
Description: Methionine analogues were synthesized via alkylation of diethylacetamidomalonate, as previously described (As described in Example I, infra; J. C. M. van Hest, D. A. Tirrell, FEBS Lett. 1998, 428, 68-70). Cultures of B834(DE3)/pQE15-MRS/pREP4 or B834(DE3)/pQE15/pREP4 or CAG18491/pQE15-MRS/pREP4 or CAG18491/pQE15/pREP4 in M9AA media were grown to an optical density of 0.90, and the cells were sedimented by centrifugation. The M9AA medium was prepared by supplementing sterile M9 medium with […] of each of the amino acids, 1 mM MgSO4, 0.2 wt % glucose, 1 mg/ml thiamine chloride, and […] calcium chloride. The antibiotics ampicillin and kanamycin were added at concentrations of 200 mg/l and 35 mg/l, respectively.
Cells were washed three times with M9 salts and resuspended to an optical density of 0.90 in M9 test media containing 19 amino acids plus 1) neither methionine nor analogue (negative control); 2) methionine (60 mg/liter, positive control); or 3) an analogue of interest (60 mg/liter). To test the effect of increasing the level of supplementation of the analogues, a set of experiments was also conducted in which the medium was supplemented with 500 mg/liter of methionine or the amino acid analogue. Expression of mDHFR was induced by addition of 0.4 mM isopropyl β-D-thiogalactopyranoside (IPTG), and protein synthesis was monitored after 4.5 hours.

B1: mDHFR: mouse dihydrofolate reductase with N-terminal hexahistidine sequence, test protein (protein, UniProt P00375 2-187, looked up)
Dihydrofolate reductase: VRPLNCIVAVSQNMGIGKNGDLPWPPLRNEFKYFQRMTTTSSVEGKQNLVIMGRKTWFSIPEKNRPLKDRINIVLSRELKEPPRGAHFLAKSLDDALRLIEQPELASKVDMVWIVGGSSVYQEAMNQPGHLRLFVTRIMQEFESDTFFPEIDLGKYKLLPEYPGVLSEVQEEKGIKYKFEVYEKKD
modifications: N-terminal His6 tag
yield of mDHFR in M9AA medium: approximately 30 mg
